{"source": "paper PMC6325625", "about": "“The traffic ATPase PilF interacts with the inner membrane platform of the DNA translocator and type IV pili from Thermus thermophilus” (FEBS Open Bio, 2018)", "molecules": {"B1": {"name": "His6-PilM (soluble PilM from cells expressing His6-pilMN-Strep) (natural protein)", "chain": "MFKSLSQLFRPRVEALGLEIGASALKLVEVSGNPPALKALASRPTPPGLLMEGMVAEPAALAQEIKELLLEARTRKRYVVTALSNLAVILRPIQVPKMPLKEMEEAVRWEAERYIPFPIDEVVLDFAPLTPLSEVQEGEQVQVMVAAARQEAVAGVLEALRGAGLVPVVLDVKPFAGLYPLEARLAEEPDRVFLVLDIGAESTSLVLLRGDKPLAVRVLTLSGKDFTEAIARSFNLDLLAAEEVKRTYGMATLPTEDEELLLDFDAERERYSPGRIYDAIRPVLVELTQELRRSLEFFRIQLEEASPEMGYLLGGGSKLRGLASLLTDTLGVNFEPVNPWEAVAVDPKRFESEQLQEIGPEFAVALGLALRGVEPLD"}}, "key": {"[1]": {"biological_target": "His6-PilM(K26A)-PilN-Strep complex (Thermus thermophilus HB27) (UniProt Q8VRL8)"}, "[2]": {"biological_target": "His6-PilM-PilN-Strep complex (Thermus thermophilus HB27) (UniProt Q8VRL8)"}, "[3]": {"biological_target": "His6-PilF (traffic ATPase PilF, hexameric complex) (Thermus thermophilus)", "test": "native gel or EMSA; clear-native PAGE (3-15%) of purified His6-PilF; data not shown"}, "PilM [4]": {"biological_target": "T1, PilM (Thermus thermophilus, UniProt Q72IW8, K26A)", "T1 construct": "full length, N-terminal His6 tag kept; pET28a, E. coli BL21 (DE3), Ni-NTA from the soluble fraction of cells co-expressing pilN-Strep; about 44 kDa monomer", "T1 sequence (Q72IW8 entry or part of it K26A)": "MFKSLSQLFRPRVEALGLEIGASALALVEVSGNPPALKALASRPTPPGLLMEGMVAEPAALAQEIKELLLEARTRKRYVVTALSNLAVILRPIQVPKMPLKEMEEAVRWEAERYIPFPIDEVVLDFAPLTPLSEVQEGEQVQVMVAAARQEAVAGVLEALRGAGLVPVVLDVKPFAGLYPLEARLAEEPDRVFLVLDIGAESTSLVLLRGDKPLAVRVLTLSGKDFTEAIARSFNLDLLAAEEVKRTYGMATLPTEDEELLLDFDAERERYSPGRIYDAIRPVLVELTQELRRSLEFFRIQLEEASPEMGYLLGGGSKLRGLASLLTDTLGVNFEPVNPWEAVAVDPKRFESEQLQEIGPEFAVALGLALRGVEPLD", "test": "UV photo cross-linking and autoradiography; luciferase ATP content", "details": "labelled compound [alpha-32P]-ATP; MN buffer pH 7.5, 5 mM MgCl2, 0.02% DDM, on ice; binding not detected"}, "PilM [5]": {"biological_target": "PilM (Thermus thermophilus, UniProt Q72IW8)", "test": "luciferase assay of co-purified ATP after TCA precipitation; also UV photo cross-linking with [alpha-32P]-ATP", "type": "binding", "details": "ATP retained from E. coli, none added"}, "[6]": {"biological_target": "PilN-Strep (Thermus thermophilus HB27) (UniProt Q8VRL7)", "test": "native gel or EMSA; 5-20% clear-native PAGE of purified His6-PilMN-Strep, His6-PilMNO-Strep and His6-PilM; bands of PilMN cut out and run on 14% SDS/PAGE"}}}
{"molecule": "His6-PilF (traffic ATPase PilF, hexameric complex) (enzyme)", "values": [{"measurement": "ATPase activity of the PilF hexamer mixed with PilM (K26A)N complex in a ratio of 1 : 20", "setting": "[1]", "value": 2, "unit": "fold"}, {"measurement": "ATPase activity of PilF (malachite green assay, 68 °C, 66.7 pmol PilF hexamer) with increasing amounts of PilMN, up to a ratio of 1 : 20 (PilF complex : PilMN complex)", "setting": "[2]", "value": 2, "unit": "fold"}, {"measurement": "stoichiometry N", "setting": "[3]", "value": 6}]}
{"molecule": "Nc1ncnc2c1ncn2[C@@H]1O[C@H](COP(=O)(O)OP(=O)(O)OP(=O)(O)O)[C@@H](O)[C@H]1O", "note": "[ATP]", "values": [{"measurement": "UV photo cross-linking and autoradiography; luciferase ATP content", "setting": "PilM [4]", "value": "no ATP was found in the PilMK26A variant"}, {"measurement": "ATP per PilM monomer", "setting": "PilM [5]", "value": "0.89 ± 0.35", "unit": "ATP per PilM monomer"}]}
{"molecule": "B1", "values": [{"measurement": "stoichiometry N", "setting": "[6]", "value": "1 PilM : PilN"}, {"measurement": "stoichiometry PilM : PilN of the larger (~195 kDa) oligomer, copies of each chain (copies of each chain)", "setting": "[6]", "value": 3}]}
